Data reported in patent publication US20240132578A1.

How the values were obtained:
Assay in all cases: cell-based or functional assay
[1] = biological target: HIV-1 Env of isolate TRJ0.58 (Acute), clade B (HIV-1)
[2] = biological target: HIV-1 MGRM-AE-005 Env (pseudovirus) (HIV-1)
[3] = biological target: HIV-1 MGRM-G-001 Env (pseudovirus) (HIV-1)
[4] = biological target: HIV-1 Env of isolate 92UG024 (clade D pseudovirus) (HIV-1)
[5] = biological target: HIV-1 Env of isolate MGRM-D-005 (clade D pseudovirus) (HIV-1)
[6] = biological target: HIV-1 CMU02 envelope (Env) on pseudovirus (HIV-1)
[7] = biological target: HIV-1 Env of isolate TRO.11 (Acute), clade B (HIV-1)
[8] = biological target: HIV-1 Env of isolate MGRM-Chronic-B-004, clade B (HIV-1)
[9] = biological target: HIV-1 Env of isolate MGRM-D-008 (clade D pseudovirus) (HIV-1)
[10] = biological target: HIV-1 Env of isolate 94KE105 (listed under clade A; pseudovirus) (HIV-1)
[11] = biological target: HIV-1 Env of pseudovirus MGRM-G-014 (HIV-1)
[12] = biological target: HIV-1 94UG103 envelope (Env) on pseudovirus (HIV-1)
[13] = biological target: HIV-1 envelope glycoprotein (Env) of isolate MGRM-C-015 (HIV-1)
[14] = biological target: HIV-1 Env of isolate 94UG103 (clade A pseudovirus) (HIV-1)
[15] = biological target: HIV-1 IAVI-C22 envelope (Env) on pseudovirus (HIV-1)
[16] = biological target: HIV-1 envelope glycoprotein (Env) of isolate MG RM-A-009, subtype A (HIV-1)
[17] = biological target: HIV-1 JR-CSF Env N396A (HIV-1 (isolate JR-CSF)) (UniProt P20871)
[18] = biological target: HIV-1 JR-CSF Env S334A (HIV-1 isolate JR-CSF) (UniProt P20871)
[19] = biological target: HIV-1 92UG005 envelope protein (Env) on pseudovirus (HIV-1)
[20] = biological target: HIV-1 envelope glycoprotein (Env) of isolate MG RM-A-003, subtype A (HIV-1)
[21] = biological target: aMLV envelope protein on pseudovirus (negative control)
[22] = biological target: HIV-1 envelope glycoprotein (Env) of isolate CMU02, subtype AE (HIV-1)
[23] = biological target: HIV-1 JR-CSF Env N301A (HIV-1 (isolate JR-CSF, clade B)) (UniProt P20871)
[24] = biological target: HIV-1 MGRM-AG-005 envelope protein (Env) on pseudovirus (HIV-1)
[25] = biological target: HIV-1 Env of isolate MGRM-Chronic-B-001 (HIV-1)
[26] = biological target: HIV-1 Env of isolate MGRM-F1-017 (HIV-1)
[27] = biological target: HIV-1 Env of isolate MGRM-D-011 (pseudovirus) (HIV-1)
[28] = biological target: HIV-1 Env of isolate MGRM-AE-006 (subtype AE) (HIV-1)
[29] = biological target: HIV-1 Env of isolate 92UG046 (pseudovirus) (HIV-1)
[30] = biological target: HIV-1 Env of isolate MGRM-F1-008 (HIV-1)
[31] = biological target: HIV-1 Env of isolate MGRM-C-001 (HIV-1)
[32] = biological target: HIV-1 Env of isolate MGRM-F1-010 (HIV-1)
[33] = biological target: HIV-1 Env of isolate MGRM-A-001 (pseudovirus) (HIV-1)
[34] = biological target: HIV-1 Env of isolate MGRM-D-004 (pseudovirus) (HIV-1)
[35] = biological target: HIV-1 Env of isolate MGRM-A-012 (subtype A) (HIV-1)

Sequence of 1443_C16 (PG16) (TCN-116) (antibody) (VH): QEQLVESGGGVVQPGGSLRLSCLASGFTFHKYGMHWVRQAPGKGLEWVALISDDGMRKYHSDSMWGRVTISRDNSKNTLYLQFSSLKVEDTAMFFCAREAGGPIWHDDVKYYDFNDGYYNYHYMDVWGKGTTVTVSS
Sequence of 1443_C16 (PG16) (TCN-116) (antibody) (VL): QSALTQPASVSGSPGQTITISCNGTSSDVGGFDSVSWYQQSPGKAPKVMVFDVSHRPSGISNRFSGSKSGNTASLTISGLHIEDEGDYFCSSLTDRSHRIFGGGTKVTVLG

Substance	IC50 (µg/ml), pseudovirus neutralization [1] [µg/mL]	IC50 (µg/ml), pseudovirus neutralization [2] [µg/mL]	IC50 (µg/ml), pseudovirus neutralization [3] [µg/mL]	IC50, pseudovirus neutralization [4] [µg/mL]	IC50, pseudovirus neutralization [5] [µg/mL]	neutralization IC50 [6] [µg/mL]	IC50 (µg/ml), pseudovirus neutralization [7] [µg/mL]	IC50 (µg/ml), pseudovirus neutralization [8] [µg/mL]	IC50, pseudovirus neutralization [9] [µg/mL]	IC50 (µg/ml), pseudovirus neutralization [10] [µg/mL]	IC50 (µg/ml), pseudovirus neutralization [11] [µg/mL]	neutralization IC50 [12] [µg/mL]	IC50 (µg/ml), pseudovirus neutralization [13] [µg/mL]	IC50 (µg/ml), pseudovirus neutralization [14] [µg/mL]	neutralization IC50 [15] [µg/mL]	Fold IC50 increase relative to wild-type (pseudovirus neutralization) [17] [fold]	Fold IC50 increase relative to wild-type [18] [fold]	IC50 (ug/mL), pseudovirus neutralization [19] [µg/mL]	IC50 (ug/mL), pseudovirus neutralization [21] [µg/mL]	Fold IC50 increase relative to wild-type [23] [fold]	further results
2F5 (antibody)	> 50	0.14	4.1	0.95	> 50	0.38	> 50	2.41	> 50	> 50	9.65	3.79	> 50	1.92	> 50						
2G12 (antibody)	> 50	> 50	> 50	0.42	25.7	> 50	0.29	8.65	> 50	7.22	> 50	> 50	1.75	48.1	> 50						
4E10 (antibody)	11.9	0.47	2.04	2.17	35.2	0.59	1.39	3.7	42.9	7.63	13.7	9.7	2.52	4.97	1.02						
1443_C16 (PG16) (TCN-116) (antibody)	1.16	0.02	0.15	24	19.7	> 50	0.22	0.01	> 50	6.13	6.98	0.008	0.26	0.04	0.0687						
1495_C14 (PGC14) (antibody)	> 50	> 50	> 50	> 50	> 50	> 50	> 50	> 50	> 50	> 50	> 50	> 50	> 50	> 50	9.5						
5123_A06 (PGT-125) (antibody)																1.6	0.8	> 10	> 10	213	IC50, pseudovirus neutralization [16]: 0.009 µg/mL; IC50, pseudovirus neutralization [20]: > 50 µg/mL; IC50, pseudovirus neutralization [22]: > 50 µg/mL; IC50 (ug/mL), pseudovirus neutralization [24]: > 10 µg/mL
5141_B17 (PGT-126) (antibody)																1.7	> 30	0.0181	> 10	314	IC50, pseudovirus neutralization [16]: 0.004 µg/mL; IC50, pseudovirus neutralization [20]: > 50 µg/mL; IC50, pseudovirus neutralization [22]: > 50 µg/mL; IC50 (ug/mL), pseudovirus neutralization [24]: 1.35 µg/mL
5145_B14 (PGT-127) (antibody)																2.4	> 500			> 250	IC50, pseudovirus neutralization [16]: 0.013 µg/mL; IC50, pseudovirus neutralization [20]: > 50 µg/mL; IC50, pseudovirus neutralization [22]: > 50 µg/mL
5147_N06 (PGT-130) (antibody)																1	0.5	0.474	> 10	> 1000	IC50 (µg/mL), pseudovirus neutralization [25]: > 50 µg/mL; IC50 (µg/mL), pseudovirus neutralization [26]: > 50 µg/mL; IC50 (µg/mL), pseudovirus neutralization [27]: 0.019 µg/mL; IC50, pseudovirus neutralization [28]: 0.009 µg/mL; IC50 (µg/mL), pseudovirus neutralization [29]: > 50 µg/mL; IC50 (µg/mL), pseudovirus neutralization [30]: 0.065 µg/mL; IC50 (µg/mL), pseudovirus neutralization [31]: > 50 µg/mL; IC50 (µg/mL), pseudovirus neutralization [32]: > 50 µg/mL; IC50 (ug/mL), pseudovirus neutralization [24]: 0.947 µg/mL; IC50 (µg/mL), pseudovirus neutralization [33]: > 50 µg/mL; IC50 (µg/mL), pseudovirus neutralization [34]: 1.21 µg/mL; IC50, pseudovirus neutralization [35]: > 50 µg/mL
5343_B08 (PGT-135) (antibody)																1	> 30	> 10	> 10		IC50 (µg/mL), pseudovirus neutralization [25]: > 50 µg/mL; IC50 (µg/mL), pseudovirus neutralization [26]: 7.79 µg/mL; IC50 (µg/mL), pseudovirus neutralization [27]: 23.5 µg/mL; IC50, pseudovirus neutralization [28]: > 50 µg/mL; IC50 (µg/mL), pseudovirus neutralization [29]: > 50 µg/mL; IC50 (µg/mL), pseudovirus neutralization [30]: > 50 µg/mL; IC50 (µg/mL), pseudovirus neutralization [31]: 10.1 µg/mL; IC50 (µg/mL), pseudovirus neutralization [32]: > 50 µg/mL; IC50 (ug/mL), pseudovirus neutralization [24]: > 10 µg/mL; IC50 (µg/mL), pseudovirus neutralization [33]: > 50 µg/mL; IC50 (µg/mL), pseudovirus neutralization [34]: > 50 µg/mL; IC50, pseudovirus neutralization [35]: > 50 µg/mL
b12 (antibody)	> 50	0.63	> 50	45.6	> 50	4.25	> 50	0.26	> 50	> 50	> 50	3.54	13.3	6.92	3.6						
